Reference: patent publication US20230295308A1, “ANTAGONISTIC BIPARATOPIC ANTIBODIES THAT SPECIFICALLY BIND FIBROBLAST GROWTH FACTOR RECEPTOR 2 AND METHODS OF USING SAME” (The Broad Institute, Inc., priority 2020, published 2023)
“Also recorded” adds a separate entry of the source.

How the values were obtained:
[1] = tested on: FGFR2-PHDGH fusion expressing BaF3 cells; experiment: ligand stimulated (FGF10) growth of FGFR2-PHGDH fusion expressing BaF3 cells (FIG. 10); assay type: cell-based; details: FGF10 present
Procedure: FIG. 10 is a graph showing that antibodies C, D, E and F have activity against ligand stimulated growth of FGFR2-PHDGH fusion expressing BaF3 cells.
The growth of BaF3 cells expressing an FGFR2-PHDGH fusion was assayed in the presence of FGF ligand, FGF10. Antibodies C, D, E and F inhibited ligand stimulated growth of FGFR2-PHDGH fusion expressing BaF3 cells (FIG. 10). Based on the results reported herein above, antagonistic biparatopic antibodies are made using the FGFR2 antibody combinations shown in FIG. 11A. These combinations result in increased growth inhibition effects in oncogenic or cancer cells (e.g., transformed BaF3 cells) that overexpressed […]. Thus, antibodies that bind to epitopes have increased inhibitory and killing effects against cancer cells. Designs for antagonistic biparatopic antibodies are shown at FIGS. 11B and 11C. Advantageously, including complementary mutations in VH-VL and CH1-CL on one-half of the biparatopic antibody results in preferential heterodimeric pairing between two different chains rather than chains from the other half of the same antibody. Alternatively, a linker method is used to create scFab, scFv, or DuoBodies. In this method two antibody chains are each generated in different cells and mixed in vitro. Such methods are known in the art and described, for example, by K. Ding et al, March 2017, Appl. Microbiol. […]

[2] = biological target: FGFR2 on SNU-16 gastric cancer cell line with FGFR2 amplification (UniProt P21802); experiment: FACS on SNU-16 cells, % No. of cells with FITC+
[3] = tested on: BaF3 cells expressing wild-type FGFR2IIIb; experiment: ligand-induced (FGF10) growth of BaF3 cells expressing FGFR2IIIb (FIG. 8); assay type: cell-based
Procedure: FIG. 8 is a schematic (described at FIG. 7A) and a graph showing the growth of BaF3 cells expressing FGFR2IIIb when treated with FGF10. Anti-FGFR2 antibodies blocked ligand-dependent stimulation of BaF3 cells expressing wild-type FGFR2b. FGFR2b is an isoform of FGFR2 that is predominantly expressed in cholangiocarcinoma.
Antibodies A-F were tested to determine whether they could inhibit the ligand-induced growth of BaF3 cells expressing FGFR2IIIb. Antibodies C, D, and E, which bind FGFR2 Ig-2 and Ig-3, were effective in blocking ligand-induced growth of BaF3 cells expressing wild-type FGFR2IIIb (FIG. 8). The effects of antibodies A-F were then tested on BaF3 cells expressing FGFR2-PHDGH fusions. […] Antibody F inhibited the FGFR2-PHDGH activating fusion in BaF3 cells (FIG. 9).

[4] = biological target: FGFR2 on SNU-16 gastric cancer cell line with FGFR2 amplification (UniProt P21802); experiment: row 'Kd (nM) (FACS)'; FACS on SNU-16 cells
[5] = biological target: FGFR2 on SNU-16 gastric cancer cell line with FGFR2 amplification (UniProt P21802); experiment: FACS on SNU-16 cells, % cells with FITC+ against log antibody concentration; Kd printed in the legend box [cont.]
[6] = biological target: FGFR2b alpha IIIb antigen (UniProt P21802); experiment: SPR (Biacore), antibody on chip, FGFR2b alpha IIIb antigen
[7] = biological target: FGFR2b alpha IIIb (Homo sapiens, UniProt P21802); experiment: Surface Plasmon Resonance (SPR) binding; details: FGFR2b alpha IIIb antigen
Sequence of FGFR2b alpha IIIb (P21802 22-378 isoform P21802-3): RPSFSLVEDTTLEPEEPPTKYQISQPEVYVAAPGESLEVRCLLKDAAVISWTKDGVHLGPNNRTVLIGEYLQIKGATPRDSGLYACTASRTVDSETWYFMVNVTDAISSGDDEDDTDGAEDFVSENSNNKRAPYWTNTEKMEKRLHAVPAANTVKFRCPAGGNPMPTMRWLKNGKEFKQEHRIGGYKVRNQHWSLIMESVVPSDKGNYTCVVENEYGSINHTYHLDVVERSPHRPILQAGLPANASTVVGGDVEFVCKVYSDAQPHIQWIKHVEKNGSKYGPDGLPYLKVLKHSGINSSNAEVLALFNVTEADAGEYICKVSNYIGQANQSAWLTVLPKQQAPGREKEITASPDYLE
Description: FIGS. 17A-17C provide a schematic and tabular data related to assessments made to compare the avidity of biparatopic antibodies to that of their parental (bivalent monospecific) antibodies.
Surface Plasmon Resonance (SPR) as known in the art was used to determine the binding affinities of biparatopic antibodies. The SPR-based binding method involves immobilization of a ligand (antibody) on the surface of a sensor chip. The binding partner of interest or an analyte (FGFR2 ECD) flow through the flow channel. Different concentrations of an analyte flow over the ligand, and the interactions of ligand-analyte can be characterized. The SPR signal originates from changes in the refractive index of the […] at the surface of the sensor chip. The increase in mass associated with a binding event causes a proportional increase in the refractive index, which is observed as a change in response-resonance signal. In brief, for the experiments using the antibodies described herein, the SPR assay was carried out by immobilizing antibodies (used as […]) at a concentration ranging from 1-1000 nM and flow-through FGFR2b alpha IIIb antigen (used as […]). The antibody kinetic data for the interaction with FGFR2b alpha IIb antigen were fitted to the 2-state and 1-1 binding models using Biocore software. The mean and standard deviation KD values are derived from at least three independent runs.
Using SPR, the kinetics of 6 monospecific and 13 biparatopic antibodies for binding to a single antigen, FGFR2b alpha IIb, was measured so as to compare avidity of the biparatopic antibodies to their parental antibodies. Without wishing to be bound by theory, it was expected that the biparatopic antibodies would bind to the FGFR2 antigen more tightly than their parental antibodies and that the tighter binding biparatopic antibodies among the antibodies that were assessed would be more efficient in blocking FGFR2 dimerization (FIG. 17A), thereby leading to inhibition or blocking of constitutive FGFR2 signaling and/or oncogenic transformation. […]

- EC50 (read off the curve) [2]: 0.3 mg/L
- Kd [4]: 1.78 nM
- Kd [5]: 1.78 nM
- Kd [6]: 0.99 nM
- Kd [7]: 0.99 nM
B1: 2B 1.3.12 (antibody, V domains shown)
VH: EVQLVESGGGLVQPGGSLRLSCAASGFPFTSTGISWVRQAPGKGLEWVGRTHLGDGSTNYADSVKGRFTISADTSKNTAYLQMNSLRAEDTAVYYCARTYGIYDTYDMYTEYVMDYWGQGTLVTVSS
VL: DIQMTQSPSSLSASVGDRVTITCRASQDVDTSLAWYKQKPGKAPKLLIYSASFLYSGVPSRFSGSGSGTDFTLTISSLQPEDFATYYCQQSTGHPQTFGQGTKVEIK
notes: the duobody scheme implies IgG1 with K409R or F405L; also called Antibody D; GE
- inhibition of ligand stimulated growth of FGFR2-PHGDH fusion expressing BaF3 cells [1]: have activity; also recorded: inhibited
- blocking ligand-induced growth of BaF3 cells expressing wild-type FGFR2IIIb [3]: effective
